Source: the Human Domainome abundance scans (Beltran et al. 2025)
± gives the uncertainty stated by the source.

B1: Transcription factor SOX-11, residues 50 to 117; numbered along this chain, P35716 (parent)
chain: KRPMNAFMVWSKIERRKIMEQSPDMHNAEISKRLGKRWKMLKDSEKIPFIREAERLRLKHMADYPDYK

Variants of: B1
Experiment: abundance fitness (aPCA) (normalised: wild type 0, dead -1); higher = more abundant; growth selection in yeast, the domain comes from the species named
Conditions: Homo sapiens

Variant	abundance fitness
Q21W	-0.313 ± 0.15
Q21S	-0.172 ± 0.047
Q21G	-0.256 ± 0.057
Q21C	-0.323 ± 0.055
Q21P	-0.437 ± 0.13
Q21K	-0.303 ± 0.21
Q21Y	-0.581 ± 0.077
Q21H	-0.194 ± 0.062
Q21V	-0.223 ± 0.055
Q21I	-0.13 ± 0.056
Q21N	-0.156 ± 0.056
Q21D	-0.267 ± 0.067
Q21T	-0.13 ± 0.077
Q21L	-0.353 ± 0.064
Q21E	0.148 ± 0.13
Q21M	-0.35 ± 0.11
K17P	-0.566 ± 0.13
K17I	-0.403 ± 0.065
K17N	-0.407 ± 0.061
K17Y	-0.564 ± 0.075
K17Q	-0.199 ± 0.39
K17H	-0.47 ± 0.08
K17F	-0.531 ± 0.065
K17W	-1.17 ± 0.34

Variant	abundance fitness
K17T	-0.458 ± 0.093
K17S	-0.518 ± 0.067
K17L	-0.373 ± 0.078
K17C	-0.527 ± 0.075
K17V	-0.6 ± 0.085
K17G	-0.756 ± 0.1
K17A	-0.484 ± 0.096
K17M	-0.533 ± 0.21
A28P	-0.562 ± 0.1
A28H	-0.183 ± 0.065
A28G	-0.205 ± 0.053
A28I	-0.205 ± 0.053
A28M	-0.529 ± 0.21
A28W	-0.425 ± 0.17
A28Y	-0.34 ± 0.059
A28D	0.205 ± 0.056
A28L	-0.211 ± 0.066
A28T	-0.134 ± 0.069
A28N	-0.24 ± 0.067
A28R	-0.266 ± 0.056
A28E	-0.061 ± 0.16
A28K	-0.278 ± 0.12
A28Q	-0.247 ± 0.15
A28C	-0.268 ± 0.055

Variant	abundance fitness
A28F	-0.47 ± 0.058
M19W	-0.762 ± 0.19
M19S	-0.264 ± 0.056
M19N	-0.426 ± 0.071
M19C	-0.29 ± 0.075
M19Q	-0.202 ± 0.15
M19V	-0.042 ± 0.052
M19I	-0.062 ± 0.057
M19E	-0.069 ± 0.16
M19G	-0.435 ± 0.076
M19T	-0.103 ± 0.064
M19P	-0.769 ± 0.14
M19D	-0.649 ± 0.1
M19K	0.021 ± 0.15
M19R	-0.24 ± 0.063
M19H	-0.187 ± 0.079
S22W	-0.024 ± 0.1
S22P	-0.841 ± 0.16
S22Y	0.165 ± 0.046
S22K	-0.352 ± 0.19
S22H	0.052 ± 0.062
S22R	-0.513 ± 0.091
S22A	-0.061 ± 0.066
S22E	-0.112 ± 0.11

Variant	abundance fitness
S22D	0.042 ± 0.059
S22F	0.118 ± 0.049
S22G	-0.587 ± 0.075
S22M	-0.302 ± 0.12
S22I	-0.539 ± 0.066
S22Q	-0.09 ± 0.14
S22V	-0.442 ± 0.064
S22L	-0.522 ± 0.076
S22T	-0.072 ± 0.064
K32N	-0.185 ± 0.061
K32T	-0.308 ± 0.073
K32I	-0.145 ± 0.056
K32G	-0.245 ± 0.063
K32L	-0.175 ± 0.058
K32A	0 ± 0.068
K32V	-0.101 ± 0.057
K32F	-0.329 ± 0.063
K32M	-0.17 ± 0.13
K32H	-0.036 ± 0.061
K32E	0.245 ± 0.16
K32D	0.047 ± 0.059
K32Q	-0.061 ± 0.12
K32P	-0.672 ± 0.16
K32W	-0.137 ± 0.14

Variant	abundance fitness
K32S	-0.253 ± 0.056
R33G	-0.54 ± 0.08
R33N	-0.008 ± 0.057
R33K	-0.075 ± 0.18
R33A	0.22 ± 0.063
R33P	-0.75 ± 0.15
R33D	0.169 ± 0.068
R33Q	0.465 ± 0.13
R33H	-0.008 ± 0.066
R33S	0 ± 0.047
R33W	0.125 ± 0.095
R33T	0.367 ± 0.069
R33C	0.178 ± 0.047
R33F	-0.001 ± 0.052
R33L	0.438 ± 0.056
R33E	0.343 ± 0.13
I13T	-0.164 ± 0.064
I13R	-0.446 ± 0.062
I13V	-0.128 ± 0.054
I13S	-0.406 ± 0.056
I13W	-0.684 ± 0.15
M25H	-0.641 ± 0.11
M25E	-0.739 ± 0.23
M25W	-0.715 ± 0.12

Variant	abundance fitness
M25A	-0.141 ± 0.072
M25Q	-0.782 ± 0.21
M25T	-0.317 ± 0.089
M25V	-0.278 ± 0.065
M25Y	-0.793 ± 0.1
M25G	-0.759 ± 0.071
M25N	-0.418 ± 0.075
M25P	-0.892 ± 0.21
M25S	-0.53 ± 0.057
M25C	-0.34 ± 0.058
M25K	-0.608 ± 0.18
M25D	-0.717 ± 0.11
M25F	-0.571 ± 0.084
M25R	-0.546 ± 0.078
R16F	-0.319 ± 0.058
R16D	-0.036 ± 0.075
R16I	0.002 ± 0.054
R16P	-0.089 ± 0.1
R16Q	0.199 ± 0.21
R16Y	-0.372 ± 0.064
R16S	-0.134 ± 0.049
R16G	-0.105 ± 0.056
R16M	-0.667 ± 0.21
R16V	0 ± 0.054

Variant	abundance fitness
R16A	0.218 ± 0.062
R16W	-0.956 ± 0.4
R16L	-0.015 ± 0.065
R16T	-0.212 ± 0.075
R16E	0.082 ± 0.15
R16H	-0.001 ± 0.069
R15K	-0.151 ± 0.15
R15I	-0.267 ± 0.072
R15G	-0.397 ± 0.065
R15P	-1.1 ± 0.33
R15Q	-0.108 ± 0.18
R15D	-1.11 ± 0.21
R15M	-0.142 ± 0.2
R15T	-0.073 ± 0.085
R15Y	-0.081 ± 0.07
R15F	-0.601 ± 0.1
R15S	-0.154 ± 0.057
R15N	-0.527 ± 0.1
R15E	0.101 ± 0.17
R15A	-0.217 ± 0.091
R15C	-0.384 ± 0.076
R15V	-0.397 ± 0.077
R15L	-0.445 ± 0.092
